{"source": "paper PMC4854314", "about": "“RNA protects a nucleoprotein complex against radiation damage” (Acta Crystallographica. Section D, Structural Biology, 2016)", "proteins": {"B1": {"name": "trp RNA-binding attenuation protein (TRAP) from B. stearothermophilus (natural protein)", "chain": "MYTNSDFVVIKALEDGVNVIGLTRGADTRFHHSEKLDKGEVLIAQFTEHTSAIKVRGKAYIQTRHGVIESEGKK", "notes": "construct as in Hopcroft et al., 2002 (PDB 1gtf); 11 identical subunits form a ring; also called TRAP ring; source: overexpressed in Escherichia coli and purified; copies: 11"}}, "target": "the molecule itself", "assay": "crystal structure; TRAP-RNA crystals, hanging drop, 2:1 molar ratio of TRAP to RNA, 70 mM potassium phosphate pH 7.8, 10 mM L-tryptophan; data collected at 100 K, 1.98 Å; asymmetric unit holds one RNA-bound and one non-RNA-bound TRAP ring"}
{"protein": "B1", "values": [{"measurement": "stoichiometry N", "value": 11}]}
